We go through seven molecules from patent US20260116958A1 (University of California, published 2026).

Test [1] addresses T1, inactive BoNT/G (BoNT/Gi) (Clostridium botulinum, UniProt Q60393 1-1297).
T1 sequence: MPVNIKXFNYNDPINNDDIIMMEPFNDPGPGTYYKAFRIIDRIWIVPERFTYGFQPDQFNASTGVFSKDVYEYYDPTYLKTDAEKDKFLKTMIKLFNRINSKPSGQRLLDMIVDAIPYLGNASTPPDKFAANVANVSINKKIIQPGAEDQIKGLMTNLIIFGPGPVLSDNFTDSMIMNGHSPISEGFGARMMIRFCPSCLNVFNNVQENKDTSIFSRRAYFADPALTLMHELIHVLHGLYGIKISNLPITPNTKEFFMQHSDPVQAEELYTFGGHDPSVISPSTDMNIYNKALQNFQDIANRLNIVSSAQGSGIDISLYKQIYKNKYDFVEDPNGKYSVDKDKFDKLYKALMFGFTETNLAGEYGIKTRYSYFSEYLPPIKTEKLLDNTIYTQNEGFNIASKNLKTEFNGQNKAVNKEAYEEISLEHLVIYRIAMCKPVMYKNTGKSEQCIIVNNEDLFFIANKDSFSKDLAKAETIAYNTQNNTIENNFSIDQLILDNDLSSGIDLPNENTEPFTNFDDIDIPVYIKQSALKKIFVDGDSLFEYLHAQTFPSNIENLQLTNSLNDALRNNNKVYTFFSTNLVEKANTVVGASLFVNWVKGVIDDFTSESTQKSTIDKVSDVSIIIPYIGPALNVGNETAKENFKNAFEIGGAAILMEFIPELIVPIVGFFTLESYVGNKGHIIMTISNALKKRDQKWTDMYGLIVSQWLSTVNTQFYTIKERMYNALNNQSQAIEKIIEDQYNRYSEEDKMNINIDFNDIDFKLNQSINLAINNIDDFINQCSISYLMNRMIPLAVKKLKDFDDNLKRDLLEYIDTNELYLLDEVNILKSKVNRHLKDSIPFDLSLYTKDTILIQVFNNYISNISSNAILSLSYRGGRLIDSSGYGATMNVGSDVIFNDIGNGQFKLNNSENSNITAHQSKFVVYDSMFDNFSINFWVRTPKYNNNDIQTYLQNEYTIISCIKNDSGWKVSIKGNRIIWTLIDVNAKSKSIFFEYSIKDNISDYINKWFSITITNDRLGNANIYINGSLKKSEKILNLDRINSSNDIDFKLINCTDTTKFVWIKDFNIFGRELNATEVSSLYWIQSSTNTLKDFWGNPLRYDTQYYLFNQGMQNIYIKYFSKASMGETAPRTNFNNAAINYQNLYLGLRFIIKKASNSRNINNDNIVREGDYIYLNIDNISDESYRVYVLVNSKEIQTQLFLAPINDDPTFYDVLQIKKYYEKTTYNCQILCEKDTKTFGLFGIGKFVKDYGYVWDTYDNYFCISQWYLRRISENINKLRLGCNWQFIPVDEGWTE
In words: flow cytometry, scFv on yeast.

Test [2] addresses inactive BoNT/G (BoNT/Gi) (Clostridium botulinum) (UniProt Q60393). As to the kind of experiment: flow cytometry, scFv on yeast.
Test [3] shares this target. As to the kind of experiment: flow cytometry, scFv on yeast; against hu6G6 Wt.
A further test addresses T2, active BoNT/G holotoxin (Clostridium botulinum, UniProt Q60393 2-1297).
T2 sequence: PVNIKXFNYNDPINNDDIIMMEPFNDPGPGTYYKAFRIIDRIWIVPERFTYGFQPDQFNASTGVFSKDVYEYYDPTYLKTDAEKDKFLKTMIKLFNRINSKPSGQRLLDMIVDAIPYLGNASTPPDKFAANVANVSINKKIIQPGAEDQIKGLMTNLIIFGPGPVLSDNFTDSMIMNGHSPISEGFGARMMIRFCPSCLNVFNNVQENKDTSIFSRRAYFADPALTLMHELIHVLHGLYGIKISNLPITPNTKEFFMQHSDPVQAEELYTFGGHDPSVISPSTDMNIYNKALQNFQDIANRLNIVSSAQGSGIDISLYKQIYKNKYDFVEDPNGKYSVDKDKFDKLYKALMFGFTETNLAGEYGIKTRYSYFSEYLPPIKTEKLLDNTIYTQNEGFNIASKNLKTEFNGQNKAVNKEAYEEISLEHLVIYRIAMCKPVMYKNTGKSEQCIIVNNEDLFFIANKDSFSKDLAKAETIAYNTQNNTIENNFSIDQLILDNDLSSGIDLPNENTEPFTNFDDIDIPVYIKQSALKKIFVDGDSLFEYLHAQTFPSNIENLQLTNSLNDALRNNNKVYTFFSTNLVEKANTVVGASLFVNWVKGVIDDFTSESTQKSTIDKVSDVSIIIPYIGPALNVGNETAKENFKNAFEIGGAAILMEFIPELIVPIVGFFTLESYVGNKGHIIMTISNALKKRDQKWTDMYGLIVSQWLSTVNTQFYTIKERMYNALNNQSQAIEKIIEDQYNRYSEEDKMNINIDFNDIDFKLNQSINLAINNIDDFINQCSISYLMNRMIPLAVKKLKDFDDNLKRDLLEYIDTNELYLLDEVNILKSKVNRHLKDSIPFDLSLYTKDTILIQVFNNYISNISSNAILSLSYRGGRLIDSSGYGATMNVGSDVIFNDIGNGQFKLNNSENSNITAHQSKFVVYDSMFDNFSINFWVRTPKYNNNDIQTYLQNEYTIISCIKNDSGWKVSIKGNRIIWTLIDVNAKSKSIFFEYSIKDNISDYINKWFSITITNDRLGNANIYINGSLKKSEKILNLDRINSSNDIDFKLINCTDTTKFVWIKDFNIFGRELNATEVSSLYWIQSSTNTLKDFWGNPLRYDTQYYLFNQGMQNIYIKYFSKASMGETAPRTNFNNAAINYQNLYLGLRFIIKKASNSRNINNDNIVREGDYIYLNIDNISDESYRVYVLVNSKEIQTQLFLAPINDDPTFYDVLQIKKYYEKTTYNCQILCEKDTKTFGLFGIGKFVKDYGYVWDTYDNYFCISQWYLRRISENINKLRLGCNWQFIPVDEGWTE

Residue numbers refer to the chain shown, from its start.

B1: Hu6G7.1 scFv (scFv, V domains shown)
VH: QVQLVQSGAEVKKPGASVKVSCKASDYSFTDYNIYWVRQTPGQGLEWIGYIDPYNGGTSYNQKFKGRATLTVDKSISTAYMELSRLRSDDTAVYYCALYGYDPDYIDYWGQGTTLTVSS
VL: DIVLTQSPASMAVSPGQRVTITCSASSSVSYLHWFQQKPGQSPKLWIYSTSNLASGVPARFSGSGSGTDYTLTINPMEAEDTATYYCQQRSSYPYTFGQGTKLEIKR
With B1, the “fold lower affinity than murine 6G7.1” value in test [1] stood at 10 fold.

B2: hu6G6 variant A3 scFv (scFv)
scFv: QVQLVQSGAEVKKPGASVKLSCKASGFNIKDTYMHWVRQAPGQGLEWIGRIDPANGNTKYDPKFQGRATITAGTSINTAYLELSRLRSDDTAVYYCASGPNYYGTTWFAYWGQGTTVTVSSVDLKSGGSTSGSGKPGSGEGSSGSARKIVLTQSPSTLSASVGDRVTITCRASHGISNYLAWYQQKPGRAPKLLIYKASTLHIGVPSRFSGSGSGTEFALTISSLQPDDFSTYYCQQYISYLPHTFGQGTRLEIK
Molecule B2 showed an equilibrium dissociation constant (Kd) in test [2] of 5.18 nM. In test [3], this molecule displayed an Improvement over WT of 4.5 fold.

B3: hu6G6 variant B8 scFv (scFv)
scFv: B2 scFv with K12N, G73Y, I76F, T115S, K148E, I239N
In test [2], B3 showed an equilibrium dissociation constant (Kd) of 3.75 nM. The Improvement over WT in test [3] was determined as 6.2 fold.

B4: hu6G6 variant A4 scFv (scFv)
scFv: B2 scFv with A54E, G73Y, T74K, G132D, K148E, I239N
B4 returned a dissociation constant (Kd) in test [2] of 3.46 nM. In test [3], this molecule registered an Improvement over WT of 6.8 fold.

B5: hu6G6 variant A3.1 scFv (scFv)
scFv: B2 scFv with K148E, I239N
B5: the Kd in test [2] worked out at 6.5 nM. This molecule also displayed an Improvement over WT in test [3] of 3.5 fold.

B6: hu6G6 variant B8.1 scFv (scFv)
scFv: B2 scFv with K12N, G73Y, I76F, K148E, I239N
In turn, B6 registered a Kd in test [2] of 5.43 nM. In test [3], this molecule displayed an Improvement over WT of 4.3 fold.

B7: hu6G6.1 IgG (antibody, V domains shown)
VH: QVQLVQSGAEVKKPGASVKLSCKASGFNIKDTYMHWVRQAPGQGLEWIGRIDPENGNTKYDPKFQGRATITAYKSINTAYLELSRLRSDDTAVYYCASGPNYYGTTWFAYWGQGTTVTVSS
VL: EIVLTQSPSTLSASVGDRVTITCRASHGISNYLAWYQQKPGRAPKLLIYKASTLHIGVPSRFSGSGSGTEFALTISSLQPDDFSTYYCQQYNSYLPHTFGQGTRLEIKR
As for B7, the dissociation constant (Kd) in the test with active BoNT/G holotoxin came to 0.476 nM.
